Results reported in the supplement of paper PMC12764529.

Test: folding stability dG unfold (combined trypsin and chymotrypsin); higher = more stable
Experimental: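 Folding stability of de novo designed mini-proteins (<80 aa, no Cys; designed by TrROS, TrMRF, ProteinMPNN and the joint model) was measured by cDNA display proteolysis with trypsin and chymotrypsin. Each protease was used at 11 concentrations in a threefold dilution series plus a no-protease condition. K50 was inferred by Bayesian fitting of sequencing counts, and dG unfold was derived against a sequence-predicted unfolded-state K50 (Tsuboyama et al. method). Sequences shown include variable-length N-terminal GS-type padding (SAGGSAGG...) inside a display construct carrying a PA tag. Rows were kept only if the AF2 dimer inter-PAE was >15, to exclude likely homo-oligomers.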

Row | Sequence | folding stability dG unfold [kcal/mol]
1 | SAGGSAGGSAGGMKVIPIYSPGKGSKEEIIELVKKKNPNVKKVEVTYNPEEDVATVTIESAGGSAGGSAGGS [r10_225_JUSTAS] | < -1
2 | SAGGPSMSLSTRTVTLPVDPDTTEEEIKEALNREVKLPSPSTAIETPVEVEISPGPPVATVTLQVKILSSAG [r5_939_JUSTAS] | < -1
3 | SAGSYTVDVSYRVPVRLSPAGAVEVPVEVELKRYLPDGVPLGEEEIEEEEEKLAEEIAKELAEALAPLSAGG [r19_389_JUSTAS] | < -1
4 | NWVVWAKLTNPEEGERKTYEVPVPPGEEPTEEEILDQAKDMLGRPKEDLRKNVEIEPYPENGWAEIEIRIRS [r1_285_TrROS] | < -1
5 | SAGGKNPEENDPEYQKPPKIPSRTIPFPAEQALAWAKELPGFDNIMVEAGGKWVEIDLDDGKIEPYGSAGGS [r16_214_TrROS] | < -1
6 | SAGGSAGGSAGNEVRVDPDTNLLLVELSNGGRARVLLNEGVIYIEPEGTTFEDIEIEPAASAGGSAGGSAGG [r17_174_TrMRF] | < -1
7 | SAGGSAGGSAGGSMKILYKLKNDNKVITSLEELKKEIESGKKVTIEEVKEIEESPDVPLSAGGSAGGSAGGS [r4_479_JUSTAS] | < -1
8 | SPAIVLATSDPSTRRRTVFVAQSHPPGPAVPDLGFDIPIGDNLYLGASISVSPSGPVNIDSIIVGPPDSLSA [r9_780_TrMRF] | < -1
9 | SAGGMVLSDVLPDGTVKPVSEEKIKEIVEKIEKEINAKIEVKIEKKWEGDKWVTTIPVTLIGLSPKLISAGG [r13_790_JUSTAS] | < -1
10 | SAGGSAGGSAGGMTIRVVPVEITPDSSGVLRRDIEEVAAANPDAEVLETTPTSVLVRYKRSAGGSAGGSAGG [r11_771_JUSTAS] | < -1
11 | SAGGSEPFTPEDLIRKALPVKPKAVVIPGPVSEEEIKALLDAGIPVVIIGKDGSRAVAVGDEVKPLSAGGSA [r2_33_TrMRF] | < -1
12 | SAGGPPKWKEVEFRMPPEDLKPDDIVDELQDDGIEIYNGDKPIDPGKSVDDLMQDNPNMPFTIKVWDSAGGS [r8_38_TrROS] | < -1
13 | SAGGSAGGSAGGSSVEEEFLAYAKANPEPAPFEFEGPDEKVLLYFPPGGEIDPVSIELKSAGGSAGGSAGGS [r4_438_JUSTAS] | < -1
14 | SAGGSAGGSTWEEVKKKAKEAGPELDFEPSPEGEKKFKIVAPKDKPEAVEALAKEYNVELEIESAGGSAGGS [r12_74_TrMRF] | < -1
15 | SAGGSAGGSAGMTVKEFTTEEEAKEAIEKAPKDVPLLLILKKPESEEEKVILYTGDKVIEEESAGGSAGGSA [r18_407_JUSTAS] | < -1
16 | SAGGLPSPDAVVEEESLELSFESSSEVVVTKKKTTKKVLPNGKVETETEEEEEVVKATKEEIEKLKKESAGG [r13_544_JUSTAS] | < -1
17 | SAPDLGSGTLLTTESRAVTDPEGNTTWVTRPVVVPVEREYFVTDPETGEWAPLSTYDPATGTLHDPNHHSAG [r14_122_JUSTAS] | < -1
18 | SAGGSAGGSAGNMEPVPTFELPHDDGRPFTIEVYKDPPMIRVEFPGKPRTMPAEEIKKLISAGGSAGGSAGG [r11_370_TrROS] | < -1
19 | SAGGGPEVVETVETPATETEVSRLPNGELLVTTTTQVTTFVRVGDELRRERVETVTTTEIVSPEELGSAGGS [r16_109_JUSTAS] | < -1
20 | SAGGANAKDVKRDGNNIQITFDGQILFKIQPPKPVPPVRVRHPDGKEHHAPLEDLKKENPDNWEIEPPSAGG [r13_802_TrROS] | < -1
21 | SAGGSALKPGQPVMIHVRLKIERPDPDGDEKKIPEIHIPVPVEEAKDIAEALPPNYKVKIDDISIMSAGGSA [r15_833_TrROS] | < -1
22 | SKVDIDVERDPGNGHYEYTVRNPNNGYDIKVRIADMDPEHGPIQVEIEPLDDGKKVHYPMPWDDIKDLIKSA [r9_1221_TrROS] | < -1
23 | SAGGSAGGSAGGALLLFEEGRRLRYETPEEAEELAAAVRAESGRPDLRISLRELSPEELPSAGGSAGGSAGG [r7_839_JUSTAS] | < -1
24 | SAGGSAGGSVKDKNGTPYSVKEAKEKKLPNGTLVIELTLPESGKKITIPKKDIPKGISSEAKLKSAGGSAGG [r6_371_JUSTAS] | < -1
25 | SAGGSAGGSGAFTADNDGGKVYSARLVPLPPGDRPVAVGLDVPVDKPVLVAVLPDRTVVVPLGSAGGSAGGS [r12_994_TrMRF] | < -1
26 | SAGGSPPVPDDETVEIEVPDYKITFHPATQEVTVQTNDPAKAKAVIEALPYPIPYKNIKIVPPEKLSAGGSA [r2_418_JUSTAS] | < -1
27 | SAGGSAGGSAGGPELGEIEPGPDGYLYVNLKVELPVELPGPDGKGTGPVEGTVRLKVGLSAGGSAGGSAGGS [r10_92_TrMRF] | < -1
28 | SAGGSAGGSAGGSELVGPEKAKEIIKEAYEKGYEEIPILLHLPNGETEEKIIKVPKNKISAGGSAGGSAGGS [r4_342_TrMRF] | < -1
29 | SAELVLASVEKKGDEVIAVTAFPDGLFVKVKTKDGKIFAAPLPAENIGPQVEALKKAFPGVEVEPFLAESAG [r14_528_TrMRF] | < -1
